The values below come from PMC9411207, “Designed peptides as nanomolar cross-amyloid inhibitors acting via supramolecular nanofiber co-assembly” (Nature Communications, 2022).

Square brackets hold non-standard residues; d marks the D form. Ends that are not written are not given here. NMeF = CN[C@@H](Cc1ccccc1)C(=O)O; NMeL = CN[C@@H](CC(C)C)C(=O)O; NMeV = CN[C@H](C(=O)O)C(C)C; Nle = CCCC[C@H](N)C(=O)O

The chains are these.
T1: N-terminal fluorescein-labeled IAPP (human, UniProt P10997 34-70, fluorescein on the N-terminus; subjected to air-oxidation)
T1 construct: also called Fluos-IAPP; source: synthetic peptide (Fmoc-SPPS, air-oxidation, RP-HPLC purified)
T1 chain (looked up): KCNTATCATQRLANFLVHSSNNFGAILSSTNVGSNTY

B1: Nle3-VF (peptide)
chain: QKL[NMeV]F[NMeF]AED[Nle][Nle][Nle]NKGAIIGL[Nle]VGGVV
B2: L3-LF (peptide)
chain: QK[NMeL]V[NMeF]FAEDLLLNKGAIIGL[Nle]VGGVV
B3: F3-VF (peptide)
chain: QKL[NMeV]F[NMeF]AEDFFFNKGAIIGL[Nle]VGGVV
B4: Nle3-LF (peptide)
chain: QK[NMeL]V[NMeF]FAED[Nle][Nle][Nle]NKGAIIGL[Nle]VGGVV
B5: F3-LF (peptide)
chain: QK[NMeL]V[NMeF]FAEDFFFNKGAIIGL[Nle]VGGVV
B6: L3-VF (peptide)
chain: QKL[NMeV]F[NMeF]AEDLLLNKGAIIGL[Nle]VGGVV

T2 sequence (P05067 672-713): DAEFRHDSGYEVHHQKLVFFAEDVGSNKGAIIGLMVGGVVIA

The first data set deals with the molecule itself. As to the kind of experiment: SEC; Superdex 75 10/300 GL, 50 mM sodium phosphate pH 7.4, 100 mM NaCl; IAPP (16.5 µM) alone or with Nle3-VF (1/2) incubated in ThT buffer, 0 h and 96 h.
Settings: not given
On the technique in general: SEC sorts molecules by how far they enter the pores of the column.
For orientation: stoichiometry N means a count of units in the complex or per binding partner. With B1, the “stoichiometry N” value is 2.

A further data set addresses T1, N-terminal fluorescein-labeled IAPP. Kind of data set: other fluorescence titration; N-terminal fluorescently-labeled peptide (5 nM) titrated with unlabeled peptide; 10 mM sodium phosphate buffer, pH 7.4 (1% HFIP); measured within 2–5 min after preparation; apparent KDs from 1/1 binding models. As to conditions: both partners purified.
For B2, the Kd turned out to be 143 nM.

Consider B1, for which the Kd came to 69.5 nM.

Regarding B3, the Kd was 15 nM.

With B4, the Kd is 55.4 nM.

Regarding B5, the Kd is 37.6 nM.

Take B6: the Kd stood at 77.3 nM.

The next data set has as its target T2, Fluorescein-isothiocyanate-β-Ala-labeled Aβ42 (UniProt P05067 672-713, fluorescein-isothiocyanate-β-Ala on the N-terminus).
T2 construct: amyloid-β peptide Aβ42, the 42-residue cut product of the amyloid precursor protein; also called FITC-Aβ42; N-terminal FITC-labeled Aβ42; source: bought: Bachem
Described as above. As to conditions: both partners purified.
Take B2: the Kd worked out at 2.6 nM.

For the molecule B1, the Kd came out at 14.5 nM.

With B3, the Kd stood at 161 nM.

For the molecule B4, the Kd came to 11.1 nM.

As to B5, the Kd stood at 431 nM.

With B6, the Kd worked out at 38 nM.
